Measurements: the supplement of paper PMC10567573
± gives the standard deviation.

Test: protein stability index of a GFP-peptide fusion (GPS, HEK-293T) (PSI 1-6); higher = more stable
[1] = treatment: DMSO, c terminus: a fixed tail appended
[2] = treatment: MLN4924 1 uM, 8 h, c terminus: a fixed tail appended
[3] = treatment: DMSO, c terminus: native
[4] = treatment: MLN4924 1 uM, 8 h, c terminus: native
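Also: 24-mer peptide tiles fused after GFP, lentivirally expressed, FACS-sorted into six equal bins by GFP/DsRed ratio, decoded by Illumina sequencing, PSI is the read-weighted mean bin number.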

| Sequence | protein stability index [1] | protein stability index [2] | protein stability index [3] | protein stability index [4] |
| --- | --- | --- | --- | --- |
| LKSELGRKWHKASNYIFVAIFWIV [P2RY14] | 2.24 ± 0.61 | 2.31 ± 0.19 |  |  |
| EKQELHRNMLGLLGNVAEVKELRP [ZER1] | 3.74 ± 0.16 | 4.04 ± 0.31 |  |  |
| NPAVRTAAANAAAGAAENAFRAP [SCAMP3] |  |  | 3.08 ± 0.69 | 3.36 ± 0.55 |
| SGNGDFGDWSAFNQAPSGPVASSG [CLINT1] | 4.37 ± 0.13 | 4.38 ± 0.11 |  |  |
| GLVKKYMNSLLIGELSPEQPSFEP [FADS1] | 2.25 ± 0.089 | 2.34 ± 0.45 |  |  |
| VSVNLEAFSQAISAIQALRSSVSR [MED27] | 3.17 ± 0.15 | 3.24 ± 0.28 |  |  |
| PDDYRCSYRIHNGQKLVVPGLLGS [FBXO3] | 2.68 ± 0.46 | 2.66 ± 0.34 |  |  |
| EDDAQSRRDEQDDDDKGDSKETRL [GOLPH3] | 5.54 ± 0.21 | 5.66 ± 0.17 |  |  |
| LKHPNIVRLHDSISEEGHHYLIFD [CAMK2A] | 2.58 ± 0.32 | 2.79 ± 0.25 |  |  |
| SQKLNFREHAKARVDHGAEIITQS [MAP2] | 3.98 ± 0.28 | 4.34 ± 0.38 |  |  |
| MPLLRDIIKMATARQETKEMARKV [ZER1] | 2.99 ± 0.3 | 3.06 ± 0.19 |  |  |
| RDLKLCRFVFADRERKKLVLENLE [TRIB3] | 2.36 ± 0.23 | 2.51 ± 0.25 |  |  |
| CEKRCSYCNFNKYIPRRLEEAAMQ [RSAD1] | 2.4 ± 0.028 | 2.6 ± 0.31 |  |  |
| LTYINEDRISTTFRLTTLLMSGCS [PLK2] | 2.74 ± 0.63 | 2.56 ± 0.45 |  |  |
| FEGFQAVSLKQEGDDQPSETDHLS [TPRG1] | 5.51 ± 0.17 | 5.54 ± 0.23 |  |  |
| VFLIIYYLDPSVLSGVSCFVMFLC [ARL6IP1] | 2.64 ± 0.29 | 2.91 ± 0.91 |  |  |
| GSTLIFYKYCDHENAAFKDVALVL [TOR1AIP2] | 2.43 ± 0.59 | 2.58 ± 0.73 |  |  |
| TLRSHLKSFSMAKGLNARMMRGLS [RAB40A] | 2.47 ± 0.19 | 2.78 ± 0.24 |  |  |
| TLRPTDSQSHCYRTCFSPASDGSD [PCDHGC5] | 3.93 ± 0.25 | 4.04 ± 0.28 |  |  |
| SRISHLVLPVQPVSSIEEQGCLF [TOR1AIP2] |  |  | 2.63 ± 0.44 | 2.62 ± 0.22 |
| SGRFIVIIPRTVIDGLDLLKKEHP [SMG5] | 2.9 ± 0.55 | 3.31 ± 0.78 |  |  |
| STQMFQTKRCFRLAPTFSNLLLQP [SMG5] | 2.16 ± 0.4 | 2.12 ± 0.2 |  |  |
| DNEYAYLKAIIFFDPDAKGLSDPG [HNF4A] | 1.92 ± 0.19 | 2.14 ± 0.092 |  |  |

| Sequence | protein stability index [1] | protein stability index [2] | protein stability index [3] | protein stability index [4] |
| --- | --- | --- | --- | --- |
| AAAATVLLRTARVRRECWFLPTAL [SLC19A2] | 2.51 ± 0.54 | 2.28 ± 0.42 |  |  |
| RAVLKYLYTGELDENERDLMHIAH [RHOBTB2] | 2.34 ± 0.13 | 2.49 ± 0.27 |  |  |
| WFSLASVIFLLLFAPFIVYYFIMA [DHCR7] | 2.27 ± 0.53 | 2.34 ± 0.44 |  |  |
| MYLKQLAEYRKYIHSRKCRCLVM [RHOBTB3] |  |  | 1.95 ± 0.5 | 2 ± 0.33 |
| GLFAVGEHTGEVRTARALLDRDAL [PCDHGA10] | 3.84 ± 0.57 | 3.81 ± 0.29 |  |  |
| DEGEEFDDWEDDYDYPEEEQLSGA [EID1] | 5.39 ± 0.22 | 5.3 ± 0.22 |  |  |
| RRRFREKKKAIQEEEERDQALQAK [YJU2B] | 5.26 ± 0.36 | 5.33 ± 0.23 |  |  |
| KNIVIADFVMSLTFPFKILGDSGL [P2RY14] | 3.04 ± 0.65 | 2.99 ± 0.38 |  |  |
| IRKTVKRLRKHQHVGDFARDLAAR [ELOA2] | 3.6 ± 0.23 | 3.69 ± 0.23 |  |  |
| IRVMVHGRNHTPFLGHHSFSVRPG [SCNN1D] | 2.55 ± 0.24 | 2.85 ± 0.88 |  |  |
| NPEEYNLDEPNAESDYTYSSSYEQ [SRPK2] | 5.52 ± 0.19 | 5.46 ± 0.25 |  |  |
| YKAKSRSPGSPVGEGTGSPPKWQI [ADD1] | 3.5 ± 0.28 | 3.76 ± 0.33 |  |  |
| SVTGHTNIVEYLIQEQPGQEQVAG [FEM1A] | 4.45 ± 0.073 | 4.57 ± 0.17 |  |  |
| PYAMKPIDYYTETKILQERAVLGA [NSDHL] | 2.85 ± 0.14 | 3.06 ± 0.18 |  |  |
| YRNLTHNPPSDFSFQNMNSKRKAE [STK38L] | 4.47 ± 0.17 | 4.58 ± 0.087 |  |  |
| NKALWENNKLKLQQKLVIDTVTEV [CBY2] | 3.16 ± 0.35 | 3.29 ± 0.25 |  |  |
| LKAIIFFDPDAKGLSDPGKIKRLR [HNF4A] | 2.45 ± 0.33 | 2.37 ± 0.12 |  |  |
| LPGWEDIESKIPLNMEEPPVEEPE [SLC19A2] | 5.51 ± 0.32 | 5.24 ± 0.23 |  |  |
| LEDKLRLLAQARDEAQGACLQQKQ [LRRC45] | 4.49 ± 0.33 | 4.19 ± 0.22 |  |  |
| NPYTELLVLKAHHDIVRFLVQLDD [WDR41] | 2.84 ± 0.39 | 2.65 ± 0.35 |  |  |
| LPGRKLVSSAVSPSIIPQEDPSQQ [INTS4] | 5.12 ± 0.12 | 5.02 ± 0.32 |  |  |
| TDAKKREALYAQDPSTGCYMYYFQ [KMT5A] | 2.48 ± 0.22 | 2.68 ± 0.35 |  |  |
| PVQELPPSLRAPPPGGWPLQPRVQ [ZMAT5] | 4.02 ± 0.39 | 4.18 ± 0.25 |  |  |

| Sequence | protein stability index [1] | protein stability index [2] | protein stability index [3] | protein stability index [4] |
| --- | --- | --- | --- | --- |
| SGESNSAVSTEDLKECLKKQLEFC [LARP4] | 4.43 ± 0.49 | 4.64 ± 0.19 |  |  |
| IGPPSAAAIFKIYLSCLEELMKCQ [TRIP13] | 2.16 ± 0.31 | 2.21 ± 0.34 |  |  |
| LIYTLKNAEMKSAMRKLWSKKVSL [OR4A15] | 2.41 ± 0.97 | 2.04 ± 0.12 |  |  |
| PPLPGDMSTGPIAESWCYTQVKVV [SPOPL] | 2.27 ± 0.15 | 2.38 ± 0.33 |  |  |
| GVEPAPWAQLEAPARLLLQALQAG [FANCE] | 2.89 ± 0.27 | 2.92 ± 0.38 |  |  |
| GRTCITDLQLTVGGAQASGTLIGV [MFSD9] | 2.33 ± 0.31 | 2.04 ± 0.3 |  |  |
| PCSVIRPILKRLERPQDRDTPVQN [CDC25B] | 4.31 ± 0.15 | 4.51 ± 0.066 |  |  |
| TETDSLVSAQRERPRRRDGPEHAT [DVL3] | 5.24 ± 0.13 | 5.33 ± 0.3 |  |  |
| LAARRQWRDECLMRLAKLKSQVQP [CRYL1] | 2.35 ± 0.36 | 2.52 ± 0.79 |  |  |
| KASGKNKHFKVQLVDNVYCIGQRR [NCK2] | 3.06 ± 0.23 | 3.2 ± 0.16 |  |  |
| KPGPITLTVAKCWDPSPRGCFTLP [DVL3] | 2.41 ± 0.32 | 2.59 ± 0.11 |  |  |
| VVVFKALVTTHHLMVHGNERFIQY [SNAP91] | 3.2 ± 0.42 | 3.02 ± 0.5 |  |  |
| WIVDKQHVYIGSAGLDWQSLGQMK [PLD5] | 2.44 ± 0.42 | 2.16 ± 0.24 |  |  |
| PRNSCITCPQCHRSLILDDRGLRG [TRIM9] | 2.58 ± 0.27 | 3 ± 0.45 |  |  |
| SLYGENSNSLSSAEPLKEDKPVTG [ATF6] | 4.54 ± 0.1 | 4.58 ± 0.22 |  |  |
| EEEGIETQYFAELLMTSGVVLCEG [CNOT7] | 3.27 ± 0.24 | 3.39 ± 0.12 |  |  |
| LLVQFVCQEYLARNARIVHLVEET [CPXM2] | 3.82 ± 0.26 | 2.63 ± 0.95 |  |  |
| LDELLGRGMATKLLARPGTGEHRE [FBF1] | 3.75 ± 0.17 | 4.09 ± 0.29 |  |  |
| FFYPLVEDPYMMGRIACANVLSDL [SEPHS2] | 2.38 ± 0.46 | 2.19 ± 0.47 |  |  |
| MINSTSTQPPDESCSQNLLITQQI [P2RY14] | 4.24 ± 0.16 | 4.26 ± 0.096 |  |  |
| NSSTWGSLKQALKGLSVEFALLAD [SNX8] | 2.39 ± 0.55 | 2.45 ± 0.36 |  |  |
| CLTQSTAAPAVRASSSPVTLRQKT [SLA] | 4.02 ± 0.35 | 4.35 ± 0.052 |  |  |
| LGSQIKSLCNLEESITSAGRDDLE [FAM98B] | 4.63 ± 0.3 | 4.74 ± 0.17 |  |  |

| Sequence | protein stability index [1] | protein stability index [2] | protein stability index [3] | protein stability index [4] |
| --- | --- | --- | --- | --- |
| TSTKTDSEEGSWAQTLAYGDMNHE [PPFIA4] |  | 4.66 ± 0.54 |  |  |
| AGQKRKHSEGRVEVYYDGQWGTVC [LOXL2] | 2.87 ± 1.3 | 3.35 ± 1 |  |  |
| SMNFSMMSTNTVGLGLPMSRSQNT [CLINT1] | 3.19 ± 0.36 | 3.44 ± 0.38 |  |  |
| LPYLEHVGHNHTYNMAPSALDSAD [NFE2L1] | 4.42 ± 0.15 | 4.44 ± 0.11 |  |  |
| RVFSQGSHAWEVALGGLQSWRVGV [TRIM35] | 2.46 ± 0.42 | 2.31 ± 0.38 |  |  |
| KNEVGGLIKALKIFQEKHVNLLHI [TPH1] | 2.02 ± 0.43 | 2.12 ± 0.011 |  |  |
| VAHVKHLSASQKALKEKEKASWSS [COX4I1] | 3.57 ± 0.4 | 3.83 ± 0.34 |  |  |
| MLASVESVPFSFDPNTAAGWLSVS [TRIM35] | 2.31 ± 0.22 | 2.33 ± 0.28 |  |  |
| EEALRKNTEEQLEIALAPYQHLEE [MTUS2] | 5.27 ± 0.18 | 5.22 ± 0.23 |  |  |
| VGYTTLVGNNHESWGWDLGRNRLY [SPSB1] | 2.26 ± 0.35 | 2.12 ± 0.25 |  |  |
| EETESSDDVEVLTLKKFKGDLAYR [C8orf76] | 4.71 ± 0.19 | 4.61 ± 0.16 |  |  |
| VLELLGPSLEDLFDLCDRTFSLKT [CSNK1G3] | 2.38 ± 0.57 | 2.36 ± 0.48 |  |  |
| ETELSLRQLVEADINGLRRILDEL [KRT36] | 3.12 ± 0.3 | 3.36 ± 0.34 |  |  |
| FTEAMTHFPASPFWSVMFFLMLIN [SLC6A17] | 2.36 ± 0.23 | 2.14 ± 0.56 |  |  |
| FLGLFFIVRFLESNWFVWVTQMNH [FADS1] | 3.69 ± 0.72 | 3.25 ± 0.32 |  |  |
| HLIRHQITHTREEQPHGRSRRREQ [ZNF8] | 4.57 ± 0.13 | 4.75 ± 0.051 |  |  |
| FGCEECGKKYNTMLGYKRHLALHA [PLAGL1] | 3.94 ± 0.12 | 3.97 ± 0.27 |  |  |
| MDSAGQDINLNSPNKGLLSDSMTD [TPD52L2] | 5.32 ± 0.2 | 5.25 ± 0.2 |  |  |
| KISGGPRISYPLLHEWALREGEE [MAGEA6] |  |  | 2.68 ± 0.52 | 3.02 ± 0.65 |
| VSKVVKGGSSGKGTTLRGRSDADL [OAS1] | 4.36 ± 0.11 | 4.48 ± 0.15 |  |  |
